Test results as given in paper PMC7826288, “Dynamics of TRF1 organizing a single human telomere” (Nucleic Acids Research, 2020).

Molecular target: the molecule itself
Assay: SEC; Superdex 200 Increase 10/300 GL, 20 mM Tris-HCl (pH 8.0), 200 mM NaCl; molecular weight assessed against standard molecular markers

B1: human TRF1(3-439) (natural protein, UniProt P54274 3-439, looked up)
chain: EDVSSAAPSPRGCADGRDADPTEEQMAETERNDEEQFECQELLECQVQVGAPEEEEEEEEDAGLVAEAEAVAAGWMLDFLCLSLCRAFRDGRSEDFRRTRNSAEAIIHGLSSLTACQLRTIYICQFLTRIAAGKTLDAQFENDERITPLESALMIWGSIEKEHDKLHEEIQNLIKIQAIAVCMENGNFKEAEEVFERIFGDPNSHMPFKSKLLMIISQKDTFHSFFQHFSYNHMMEKIKSYVNYVLSEKSSTFLMKAAAKVVESKRTRTITSQDKPSGNDVEMETEANLDTRKSVSDKQSAVTESSEGTVSLLRSHKNLFLSKLQHGTQQQDLNKKERRVGTPQSTKKKKESRRATESRIPVSKSQPVTPEKHRARKRQAWLWEEDKNLRSGVRKYGEGNWSKILLHYKFNNRTSVMLKDRWRTMKKLKLISSDSED
notes: also called TRF1 dimer; source: E. coli BL21(DE3), purified (Ni-NTA, 3C protease, HiTrap Heparin, Superdex 200)
  stoichiometry N: 2
